The record followed here is patent US20140148355A1, “COMPOSITIONS AND METHODS FOR ANALYSIS OF H3K4 METHYLATED CHROMATIN” (UNIVERSITY OF OSLO, priority 2011, published 2014).

Assay [1] deals with T1, methylated H3K4 peptides (panel of biotinylated histone tail peptides) (Homo sapiens, UniProt P68431).
T1 construct: purchased Upstate Biotechnology
Description: Histone peptide binding (pull-down) assay with biotinylated histone peptides. To be noted: for preference for methylation state of H3K4 peptides: pull-down with biotinylated histone peptides, anti-GST immunoblot. The procedure: (§1) FIG. 3 The ASHH2 CW domain binds histone H3 tails methylation on lysine 4. (A) Cartoon of the ASHH2 protein with CW, AWS and KMT (SET domain) indicated. The two recombinant proteins used in this study are also illustrated. (B) SDS-PAGE of purified GST and GST-ASHH2-CW. (C) Pull-down assay using biotinylated histone peptides and recombinant GST, GST-ASHH2-CW and GST-ING2-PHD as indicated. The ratio of proteins and peptides were 0.5 μg:0.5 μg. (D) Pull-down assay using biotinylated histone peptides and recombinant GST and GST-ASHH2-CW as indicated. The ratio of proteins and peptides were 1.0 μg:0.5 μg. (E) Surface plasmon resonance traces from an experiment with immobilised, biotinylated H3K4me1 peptide and GST-ASHH2-CW. (F) Dissociation constants for GST-ASHH2-CW and the three H3K4me peptides indicated calculated from surface plasmon resonance data. The number of replicates are indicated.
(§2) FIG. 4 CW domains from four different proteins bind methylated H3K4 peptides. (A) Cartoons of the proteins studied: human MORC4, Arabidopsis VAL1, and human ZCWPW1. (B, C) Pull-down assay using biotinylated histone peptides and (B) recombinant GST, GST-Val1-CW and GST-MORC4-CW or (C) GST, GST-ASHH2-CW, and GST-ZCWPW1-CW, as indicated. The ratio of proteins and peptides were equimolar.
(§3) FIG. 7 Probing the predicted histone tail binding site with mutant CW domains. […] The predicted binding site for the histone tail is indicated as in FIG. 6D. (B and C) Pull-down assays using biotinylated histone peptides and recombinant GST and GST-ASHH2-CW mutant proteins as indicated. The ratio of proteins and peptides were 1.0 μg:0.5 μg.
(§4) Histone peptide binding assays were performed as described by Shi et al (2006) with biotinylated histone peptides from Upstate Biotechnology. The protein-peptide ratio used is indicated in the legends to the figures. Bound proteins were visualized by immunoblotting using rabbit anti-GST antibodies Z-5 (SC-456) from Santa Cruz at a 1:20,000 dilution, and a donkey anti-rabbit HRP conjugate (Amersham NA934) at a 1:10,000 dilution.
In general terms: In western blotting, separated proteins are transferred to a membrane and probed.

Assay [2] concerns the target biotinylated H3 peptide monomethylated on lysine 4 (H3K4me1) (Homo sapiens, UniProt P68431). Description: Surface plasmon resonance (BIAcore T100) binding to immobilised H3K4me1 peptide. To be noted: GST-tagged protein 0.1 μM to 10 μM, HBS-P buffer. As for the experimental part:
(§5) Surface plasmon resonance binding assays were performed on a BIAcore T100 biosensor according to the manufacturers protocols using immobilized, biotinylated H3 peptides monomethylated (0.54 ng), dimethylated (0.24 ng), or trimethylated (0.48 ng) on lysine 4. GST-tagged ASHH2 CW protein in five different concentrations in a range from 0.1 μM to 10 μM was injected for 2 min at a flow rate of 10 μl/min. Each sample injection was followed by injection of HBS-P buffer (10 mM HEPES pH 7; 150 mM NaCl) alone for 5 min at a flow rate of 5 μl/min. Kd values were obtained using the Biacore T100 Evaluation software 2.0.1. Measurements were repeated 2 to 5 times.
For orientation: Surface plasmon resonance follows binding to a sensor surface in real time, without labels.

For assay [3], the target named is T2, three methylated forms of H3K27-peptides (Homo sapiens, UniProt P68431).
T2 construct: purchased Upstate Biotechnology
As to the kind of experiment: Histone peptide binding (pull-down) assay, methylated H3K27 peptides. Particulars: protein:peptide 1.0 μg:0.5 μg. As for the experimental part:
as §1, §4

Assay [4] has as its target biotinylated H3 peptide trimethylated on lysine 4 (H3K4me3) (Homo sapiens, UniProt P68431). As to the kind of experiment: Surface plasmon resonance (BIAcore T100) binding to immobilised H3K4me3 peptide. Particulars: GST-tagged protein 0.1 μM to 10 μM, HBS-P buffer. As for the experimental part:
as §5

Assay [5] relates to H3K4me1 in Arabidopsis chromatin. As to the kind of experiment: Chromatin pulldown (ChPD), western blot quantification, H3K4me1. It counts as binding. To be noted: chromatin from Arabidopsis seedlings, anti-H3K4me1 western blot. An excerpt:
(§6) FIG. 8 Chromatin pulldown (ChPD) using the ASHH2 CW. […] Modified histones were visualised by western blot using antibodies as indicated. Molecular size markers are shown to the right. (B) qPCR with primers for assumed ASHH2 target genes on DNA isolated from seedling chromatin pulled down with GST-CWASHH2. ChPD with GST alone was used as a negative control. Data are shown as percent of input. The Ta3 retrotransposon was used as reference. Standard deviations are shown. (C) ChIP using antibodies against H3K4me1, H3K4me3 and H3K36me3 and primers for the same genes as in (B). Data are shown relative to Ta3. (D) ChPD from wt and ashh2 mutant seedlings as in (A) using antibodies as indicated. ChPD with GST alone was used as a negative control and histone H3 as reference.
(§7) Chromatin pull-down (ChPD) was performed using crude chromatin in ChIP dilution buffer (1.1% Triton X-100, 1.2 mM EDTA, 16.7 mM Tris-HCL pH 8, 167 mM NaCl) prepared as for ChIP (Gendrel et al., 2005) incubated with 8 μg GST-CW fusion protein and control proteins (only GST alone, or together with GST-CW-W874A and GST-WIYLD) over night. For western blotting, the pulled down chromatin was washed three times in ChIP dilution buffer, run on a 15% SDS-PAGE and blotted onto a PVDF membrane. […]

Assay [6] concerns chromatin associated with genes regulated by ASHH2. As to the kind of experiment: Chromatin pulldown (ChPD) followed by qPCR on ASHH2 target genes. The format is binding, Arabidopsis. To be noted: seedling chromatin; GST alone as negative control.
Source text: as §6, §7
(In general: Real-time PCR tracks product formation cycle by cycle.)

The target in assay [7] is biotinylated H3 peptide dimethylated on lysine 4 (H3K4me2) (Homo sapiens, UniProt P68431). As to the kind of experiment: Surface plasmon resonance (BIAcore T100) binding to immobilised H3K4me2 peptide. Particulars: GST-tagged protein 0.1 μM to 10 μM, HBS-P buffer. As for the experimental part: as §5
In assay [8] the test system is H3K4me2 in Arabidopsis chromatin. Description: Chromatin pulldown (ChPD), western blot quantification, H3K4me2. The format is binding. To be noted: chromatin from Arabidopsis seedlings, anti-H3K4me2 western blot.
Source text: as §6, §7

The subject of assay [9] is methylated H3K4 peptides (panel of biotinylated histone tail peptides). Description: Histone peptide binding (pull-down) assay with biotinylated histone peptides. To be noted: panel incl. trimethylated H3K27 and H3K36 peptides. The procedure:
as §1, §2, §3, §4

The target in another assay is T3, H3K4me3 peptide (Homo sapiens, UniProt P68431).
T3 construct: purchased Upstate Biotechnology
Description: Histone peptide binding (pull-down) assay, H3K4me3 peptide. Particulars: protein:peptide 0.5 μg:0.5 μg. As for the experimental part:
as §1, §4

For assay [10], the system named is H3K4 methylated chromatin. As to the kind of experiment: Chromatin pulldown (ChPD) with western blot detection. Particulars: antibodies against each of the three H3K4 methylation states; Arabidopsis seedling chromatin. It counts as binding.
Source text: as §6, §7

B1: GST-ZCWPW1-CW: human ZCWPW1 CW domain (nt 714-942, from HEK293 cDNA) as GST fusion protein (protein)
chain: IRDQQKGEISGFGQCLVWVQCSFPNCGKWRRLCGNIDPSVLPDNWSCDQNTDVQYNRCDIPEETWTGLESDVAYAS
modifications: left off: a dimerising Fc or GST
notes: human ZCWPW1 CW domain (nt 714-942, from HEK293 cDNA) as GST fusion protein
Regarding B1, the “preference for methylation state of H3K4 peptides” value (shortened to “preference for methylation state”) in assay [1] was “clear preference for H3 Kme2 and me3 peptides”.

B2: GST-Val1-CW: Arabidopsis VAL1 CW domain (nt 1575-1797) as GST fusion protein (protein)
chain: VFGKRTIVTTKPSGEQERWATCDDCSKWRRLPVDALLSFKWTCIDNVWDVSRCSCSAPEESLKELENVLKVGRE
modifications: left off: a dimerising Fc or GST
notes: Arabidopsis VAL1 CW domain (nt 1575-1797) as GST fusion protein
B2: the “preference for methylation state” value is “strongest preference for K4me3” in assay [1] (listed as VAL1); “clear preference for H3 Kme2 and me3 peptides” in assay [1] (listed as VAL1 CW).

B3: W865A: GST-ASHH2-CW mutant, tryptophan 865 to alanine (protein)
chain: MVVDVTIEDSYSTESAAVRCDDCFKWRRIPASVVGSIDESSRWICMNNSDKRFADCSKSQEMSNEEINEELGIGQDEADAYDCDAAKRG
modifications: left off: a dimerising Fc or GST; large carriers; small tags and cut ends
notes: GST-ASHH2-CW mutant, tryptophan 865 to alanine
For B3, the “histone tail binding of mutant ASHH2 CW domains” value in [1] (pull-down, protein:peptide 1.0 μg:0.5 μg) is on record as “abolished histone tail binding”.

B4: GST-ASHH2-CW: Arabidopsis ASHH2 CW domain (nt 2547-2811) expressed and purified as a GST-fusion protein from bacteria (protein)
chain: VVDVTIEDSYSTESAWVRCDDCFKWRRIPASVVGSIDESSRWICMNNSDKRFADCSKSQEMSNEEINEELGIGQDEADAYDCDAAKRG
modifications: left off: a dimerising Fc or GST
notes: Arabidopsis ASHH2 CW domain (nt 2547-2811) expressed and purified as a GST-fusion protein from bacteria
What is called Kd is the concentration at which binding is half-saturated. A higher Kd goes with weaker binding. With B4, the Kd worked out at 1150 nM in assay [2], 4000 nM in [4] and 2100 nM in assay [7]. In addition, the “binding to methylated H3K27-peptides” value in [3] is recorded as “no binding was observed”. Moreover, the “bound H3K4me1 chromatin relative to input chromatin” value in [5] is 4.4 times of input material (2.5%). The “binding of chromatin associated with ASHH2-regulated genes (real-time PCR)” value in assay [6] was “significantly above background levels”. For the same molecule, the “bound H3K4me2 chromatin relative to input chromatin” value in assay [8] was 3.3 times of input material (2.5%). Besides, the “sequence selectivity on histone peptide panel” value in assay [9] was “only binds the methylated H3K4 peptides”. Moreover, in assay [1], the “preference for methylation state” value was “preference for mono- and dimethylated H3K4 peptides”. Moreover, the “binding to the H3K4me3 peptide” value with H3K4me3 peptide is “close to background levels”. Also, the “pull down of H3K4 methylated chromatin (western blot signal)” value in assay [10] is “Strong signals”.

B5: GST-MORC4-CW: human MORC4 CW domain (nt 1236-1422, from HEK293 cDNA) as GST fusion protein (protein)
chain: TVARPIPKVPDQTWVQCDECLKWRKLPGKIDPSMLPARWFCYYNSHPKYRRCSVPEEQELTD
modifications: also: GST fusion partner not part of the given chain
notes: human MORC4 CW domain (nt 1236-1422, from HEK293 cDNA) as GST fusion protein
As to B5, the “preference for methylation state” value in assay [1] was “preference for H3K4me2”.
